Assay results reported in publication PMC10349087 (Nature Communications, 2023).

What was measured:
Experiment in all cases: BLI
Conditions in all cases: both partners purified
[1] = target: SARS-CoV-2 spike receptor-binding domain, Omicron BA.2 variant (amino acids 331-529), biotinylated (SARS-CoV-2 Omicron BA.2, G504D | S371F | S375F | T376A | D405N | R408S | K417N | N440K | S477N | T478K | …, biotin (RBD expression vector co-expressed with BirA-Flag, 100 μM biotin added))
[2] = target: SARS-CoV-2 spike receptor-binding domain, Omicron BA.1 variant (amino acids 331-529), biotinylated (SARS-CoV-2, Omicron BA.1, G339D | S371L | S373P | S375F | K417N | N440K | G446S | S477N | T478K | E484A | …, biotin (RBD expression vector co-expressed with BirA-Flag, 100 μM biotin added))
[3] = target: SARS-CoV-2 spike receptor-binding domain, Delta variant (amino acids 331-529), biotinylated (SARS-CoV-2, Delta, L452R | T478K, biotin (RBD expression vector co-expressed with BirA-Flag, 100 μM biotin added))

Row | Binder | Kd [1] [nM] | koff [1] [s⁻¹] | kon [1] [M⁻¹ s⁻¹] | Kd [2] [nM] | koff [2] [s⁻¹] | kon [2] [M⁻¹ s⁻¹] | Kd [3] [nM] | koff [3] [s⁻¹] | kon [3] [M⁻¹ s⁻¹]
1 | NIV-13 Fab (Fab, V domains shown) VH: EVQLLESGGGLVQPGGSLRLSCAASGFTFSRYALSWVRQAPGKGLEWVSAISGAAITTYYADSVKGRFTISRDDSRNTLFMQMDSLRAEDTAVYYCAKGDYYDSSGYLAEYFPHWGQGTLVTVSS VL: SYELTQPPSVSVSPGQTARITCFADALPKQHAYWYQQKAGQAPVLVIFKDTERPSGIPKRFSGSRSGATVTLTISGVQAEDEADYYCQSTDISGVLFGGGTKLTVL | 1.49 | 0.000369 | 247000 | 0.802 | 0.000248 | 309000 | 0.0919 | 3.72e-05 | 405000
2 | NIV-11 Fab (Fab, V domains shown) VH: QLVQSGPEVKKPGTSVKVSCKASGFTFYYSAVQWVRQARGQRLEWLGWMAVGSGKANYAQKFQERLTLTRDMSTSTAYMELSSLRSEDTAVYYCAAPNCTGGSCYDGFNLWGQGTVVTVSS VL: EIVLTQSPGTLSLSPGDRAILSCRASQTVNSNYLAWYQQKPGQAPRLLIYGTSSRATGIPDRFSGSGSGTDFTLTISRLEPEDFAVYYCQQYGSSPWLFGQGTKVEIK | 11 | 0.00355 | 322000 | 9.14 | 0.00335 | 366000 | 0.00478 | 5.08e-07 | 106000
3 | NIV-10 Fab (Fab, V domains shown) VH: EVQLVESGGGLVQPGGSLRLSCAASGFTFYSYWMTWVRQAPGKGLEWVANIKHDESESHYVDSVRGRFTISRDNAKNSVYLQMKGLRAEDTAVYYCARDGGYNILTAYYHAPSYWGQGTLVTVSS VL: QSALTQPASVSGSPGQSITISCTGTSSDVGGYNFVSWYRQYPGKAPQLMIYDVSRRPSGDSDRFSGSKSGNTASLTISGLQAEDEAEYHCSSYTGRSPYVVFGGGTKVTVL | 76.1 | 0.0064 | 84100 | 96.6 | 0.0124 | 129000 | 0.00371 | 1.31e-06 | 354000
4 | NIV-8 Fab (Fab, V domains shown) VH: EVQLVESGGGVVQPGRSLRLSCAASGFKFSKFAMHWVRQAPGKGPEWVAVISYDGNQYHSADSVKGRFTISRDNSFNTLYLQMNSLGPEDTAVYYCARDGPDTSGYYANIYFDFWGQGTLVTVSS VL: QSVLTQPPSVSGAPGQRVTISCTGSSSNIGAGYDVHWYQQLPGRAPKLLIFDNNNRPSGVPDRFSGSKSGTSASLAITGLQTEDEAYYYCQSYDNSLILAVFGGGTKVTVL | 20 | 0.00206 | 103000 | 24.7 | 0.00312 | 126000 | 0.00475 | 1.28e-06 | 269000
